Test results as given in US20240043859A1, “HERBICIDE-RESISTANT PROTEIN, AND GENE AND USE THEREOF” (QINGDAO KINGAGROOT CHEMICAL COMPOUND CO., LTD., priority 2020, published 2024).
Positions count from the first letter of the chain named. “Also recorded” adds a separate entry of the source.

Columns and labels:
[1] = Chromogenic reaction of degrading herbicides in bacteria: 2,4-D; assay type: cell-based, Escherichia coli; conditions: recombinant E. coli expressing the gene, 2,4-D added to the medium, red = phenols
Procedure: (§1) To transform the plasmids to be tested, an AAD12-expressing plasmid and a blank control plasmid pET15b were respectively transformed into the protein expression E. coli BL21(DE3) strains. A monoclone was selected and inoculated in a 10 ml centrifuge tube with 3 ml LB medium, and cultivated at 37° C., 200 rpm for 6-8 hours. The culture medium was added with 0.1 mM IPTG and 2 mM α-ketoglutaric acid, and then 0.5 mM 2,4-D. The temperature was switched to 28° C. and the cultivation continued overnight. In the next morning, 200 μL of each bacteria solution was taken and centrifuged to precipitate thallus, 180 μL of the supernatant was taken and added in a 96-well plate, and 20 μL of borate buffer of pH 10 was added. Then the mixture was added with 2 μL of 8% potassium ferricyanide and mixed well, followed by adding 2 μL of 2% 4-aminoantipyrine, and placed at room temperature for 5 min to observe the color and detect the A510 value.
The bacteria solution also appeared red when 2,4-D was directly added into the medium of AAD12-expressing bacteria, as shown in FIG. 1.
2,4-D was added into these bacteria solutions of AAD gene-expressing recombinant E. coli and cultivation was continued for color development.

Arabidopsis thaliana = assay: Herbicide resistance of transgenic Arabidopsis thaliana seedlings on plate medium (root growth); assay type: in vivo; conditions: Arabidopsis overexpressing the gene
Procedure: Expression in Arabidopsis thaliana was regulated by its AtUbi10 Arabidopsis thaliana ubiquitin promoter and the MAS (mannopine synthase) terminator. Hygromycin resistance gene (HygR=hpt) served as the selection marker.
Preparation of Agrobacterium infection solution: An activated Agrobacterium (GV3101) monoclone was picked and inoculated in 30 ml YEP liquid medium [yeast powder 10 g/L, tryptone 10 g/L, NaCl 5 g/L, 25 mg/L Rifampicin and 50 mg/L Kanamycin], shaking-cultured at 200 rmp/min, 28° C. overnight until the OD600 was about 1.0-1.5, then centrifuged at 6000 rmp/min for 10 min to collect the bacteria, and the supernatant was discarded. Arabidopsis thaliana infection solution (sucrose 50 g/L, Silwet L-77 300 μL/L, no need to adjust pH) was used to resuspend the cells to OD600=0.8 for later use.
Genetic transformation of Arabidopsis thaliana by flower dipping: Before transformation of Arabidopsis thaliana plants, attentions were paid to whether the plants were growing well, the inflorescences were abundant, and no stress response occurred. The first transformation was performed when plants were about 20 cm high. Plants could be properly watered if the soil was dry. The grown siliques were cut off with scissors the day before transformation. The inflorescences of the plants to be transformed were soaked in the above-mentioned Agrobacterium solution for 30 seconds to 1 minute, which was stirred gently during the period. And a layer of liquid film should appear on the infiltrated plant. The transformed plants were cultured in a dark environment for 24 hours, and then taken out and grown in a normal light environment. A second transformation could be performed in the same way a week later.
Seeds were treated with disinfectant for 5 min, washed with sterile water for 5 times and then one part was spread on MS transgenic screening medium (containing 30 μg/mL hygromycin, 100 μg/mL carbenicillin) to screen transgenic seedlings, and the other part was spread on MS medicated medium [containing 250 μg/mL Cefotaxime sodium and 0.3 μM 2,4-D] to screen herbicide-resistant seedlings at mean time. The petri dish spread with seeds was placed at 4° C. for vernalization for 3 days, and taken out to a illumination incubator for cultivation (temperature of 22° C., 16 hours of light, 8 hours of darkness, light intensity of 100-150 μmol/m^2/s, humidity of 75%). After one week, it was observed that the roots of the wild-type control seedlings were not elongated and their growth was inhibited, while the transgenic seedlings had normal root growth, showing drug resistance. The transgenic positive seedlings and herbicide-resistant seedlings were photographed and transplanted into small pots filled with soil for cultivation.
The transgenic lines with the nine vectors, pQY2309, pQY2310, pQY2311, pQY2312, pQY2313, pQY2314, pQY2315, pQY2316 and pQY2317, overexpressing AAD gene in the T2 generation were further tested on plate medium for their resistance to 2,4-D, 2,4-DB sodium and MCPA herbicide. Two events were tested for each transformant.

[2] = assay type: cell-based, Escherichia coli
Procedure: as §1, with “The culture medium was added with 0.1 mM IPTG and 2 mM α-ketoglutaric acid, and then 0.5 mM 2,4-D.” left out, “value. […]” for “value.”

B1: QYD2: AAD-like candidate enzyme; 100.00% identical to US20170009214-0019 (AAD2) (protein)
chain: MTIAIRQLQTHFVGQVSGLDLRKPLTPGEAREVESAMDKYAVLVFHDQDITDEQQMAFALNFGQREDARGGTVTKEKDYRLQSGLNDVSNLGKDGKPLAKDSRTHLFNLGNCLWHSDSSFRPIPAKFSLLSARVVNPTGGNTEFADMRAAYDALDDETKAEIEDLVCEHSLMYSRGSLGFTEYTDEEKQMFKPVLQRLVRTHPVHRRKSLYLSSHAGKIASMSVPEGRLLLRDLNEHATQPEFVYVHKWKLHDLVMWDNRQTMHRVRRYDQSQPRDMRRATVAGTEPTV
modifications: Synthetic polypeptide, QYD02, D2
Chromogenic reaction of degrading herbicides in bacteria: 2,4-D [1]: Yes
Resistance of transgenic Arabidopsis thaliana: 2,4-D (Arabidopsis thaliana): Yes

B2: QYD14: AAD-like candidate enzyme, SEQ ID NO. 27 (protein)
chain: MTTTKTKSFITIKNKRFHYIWLRENCPSCRYAAPYQQLYDPNISDRPEYPQPLSVELNEETLTIDWDETPAHRSVFSVEWLLKNSYDPQPELESDNYIFWERAKLELKPPQTYNAETINNDGWMEQLFSLGFVILENIPPEKLESFLSSIGPIFNADYGTIMPLETRDKTTESLPSRDGCPLPPHHDLSYWGGHRLVEFLYCVENQNSGGESTLVDGFQVAQDFSQDYPQYYQTLLETPVQFWLVDKTHQYRFCNIATILECDRYGNLTTVRFSKRNCRPHLPFEQLEDFYQAYHTFFHYLKKNDYKHQFQLRSHNCLLFQNFRILHGRTAFDPALGKRKLNSGYVDWNFFVGRRNFQ
modifications: Synthetic polypeptide, QYD14, D14
Resistance of transgenic Arabidopsis thaliana: 2,4-D (Arabidopsis thaliana): Yes

B3: QYD3: AAD-like candidate enzyme; 100.00% identical to US20160002662-0002 (AAD13) (protein)
chain: MSPAFDIAPLDATFGAVVTGVKLADLDDAGWLDLQAAWLEYALLVFPDQHLTREQQIAFARRFGPLEFEMAAISNVRPDGSLRVESDNDDMMKILKGNMGWHADSTYMPVQAKGAVFSAEVVPSVGGQTGFADMRAAYDALDEDLKARVETLQARHSLHYSQSKLGHQTKAADGEYSGYGLHDGPVPLRPLVKIHPETGRKSLLIGRHAHAIPGLEPAESERLLQQLIDFACQPPRIYHHDWAPGDAVLWDNRCLLHQATPWDMTQKRIMWHSRIAGDPASETALAH
modifications: Synthetic polypeptide, QYD03, D3
Chromogenic reaction of degrading herbicides in bacteria: 2,4-D [1]: Yes
Resistance of transgenic Arabidopsis thaliana: 2,4-D (Arabidopsis thaliana): Yes

B4: QYD4: AAD-like candidate enzyme; 99.65% identical to US20100251432-0002 (AAD13 mutant) (protein)
chain: B3 chain with E69A
modifications: Synthetic polypeptide, QYD04, D4
Chromogenic reaction of degrading herbicides in bacteria: 2,4-D [1]: Yes
Resistance of transgenic Arabidopsis thaliana: 2,4-D (Arabidopsis thaliana): Yes

B5: QYD75: AAD-like enzyme, SEQ ID NO. 149 (protein)
chain: MPSFNIAPIDASFGAVVTGIRLATVDDERWRELHQAWLEHALLIFPGQHLSRDEQISFARRFGPLEFDMAAISNVKSDGTLRIEADNDDVVKILKGNMGWHADSTYMSVQAKGAVFSAEVVPAAGGQTGFADMRAAYDALDDGLRTKVETLAAHHSLHYSQAKLGHQPEAGSAYSGYGFHAGPVPLRPLVKTHPETGRKSLLIGRHAHNIPGLDPDESERLLDELVDFACQAPRVYHHSWSAGDVVIWDNRCLLHRATPWDMTQPRVMWHSRIAGDPVAEASLN
modifications: Synthetic polypeptide, QYD75, D75
Chromogenic reaction of degrading herbicides in bacteria: 2,4-D [1]: Yes
Chromogenic reaction of degrading herbicides in bacteria: 2,4-D ([1]; listed as D75): could degrade 2,4-D; also recorded: capable of degrading 2,4-D
Chromogenic reaction of degrading herbicides in bacteria: MCPA [2]: Yes

B6: QYD1: AAD-like candidate enzyme; 100.00% identical to US20170022515-0011 (AAD1) (protein)
chain: MAHAALSPLSQRFERIAVQPLTGVLGAEITGVDLREPLDDSTWNEILDAFHTYQVIYFPGQAITNEQHIAFSRRFGPVDPVPLLKSIEGYPEVQMIRREANESGRVIGDDWHTDSTFLDAPPAAVVMRAIDVPEHGGDTGFLSMYTAWETLSPTMQATIEGLNVVHSATRVFGSLYQAQNRRFSNTSVKVMDVDAGDRETVHPLVVTHPGSGRKGLYVNQVYCQRIEGMTDAESKPLLQFLYEHATRFDFTCRVRWKKDQVLVWDNLCTMHRAVPDYAGKFRYLTRTTVGGVRPAR
modifications: Synthetic polypeptide, QYD01, D1
Chromogenic reaction of degrading herbicides in bacteria: 2,4-D [1]: Yes
Resistance of transgenic Arabidopsis thaliana: 2,4-D (Arabidopsis thaliana): Yes

B7: QYD5: AAD-like candidate enzyme, SEQ ID NO. 9 (protein)
chain: MPFAGELPSAIETQVSKILALIAAYRHRSPNVPDRFAQFVPELEKQLADTVSKKEPVRFVLPAFPFKAPVEGNKRKTLGSLPDKAEEIALKTLDGFADSIAEIYEAGATVVLVSDASVYGDLLNVADAEAFTYHQELQKLASSLGLEHLEFVRPGALAGIAPKDAHTLEEYSDHVNKTRNLLDGPLAQDVNPSEDENVQATSKHYDTALPTTDDPEAFKTAMLKRGKAYAKLIASSSETTIRLSIHESNNVGKITLDLFPPSTNPDFITPWHGAVAVLADASVRIVDASTVDMTKFEVITNAEGRPWLLREKSELFNWFGMELDFEPLFPCGMVVRPRNGYGPYKFEDVNMKQVRRLALSTAPLLLRGFTMEIEKEVFRQKARELGEIQMWPFGDILEVRENADFNMNNVLTREAMPFHYDGVFKTIQDEKTGEWISTPPLFQMFRNRAASQQKGGLTLFSSSRNLIPLLGPDSIPLDELRKLKWKTFTVVNEAFGGHELLLPFIASHPETGADTFRFHEPWPESKCISGSSEPTIVQVVGWPAAESDALCAKLTDLLYDRRVAYRHQWTAGDFIFNDNATTHHTRTAFENGHREHWRVHVS
modifications: Synthetic polypeptide, QYD05, D5
Resistance of transgenic Arabidopsis thaliana: 2,4-D (Arabidopsis thaliana): Yes

B8: QYD31: AAD-like candidate enzyme, SEQ ID NO. 61 (protein)
chain: MKVEHLTEATFGSVVTDIDLETIDDAEWRELYDLWIERALLVFPGAFLSAEGQDAFARRFGDLEFSRAALSNIGKDGKVHHENDDEVVKSLRGNEGWHIDSTYMPVQAKGAVFSAEIVPSSGAATGWADMRSAYEELDAETRERLADLTAYHSLYYSQGRAGNLPDEPNEDGTYNLYGYHDMEVSLRPLIKIHPITERPSLLIGRHAHDIVGMDPAESESLLDDLNDWACQPPRTYHHQWDVGDAVLWDNRRLQHRGTPFDMTEPRRMWHTRIAGDPSSELALNHHPDTVPSDDVERHPTGTWAC
modifications: Synthetic polypeptide, QYD31, D31
Resistance of transgenic Arabidopsis thaliana: 2,4-D (Arabidopsis thaliana): Yes
